# Assay results: PMC2843729
# Target: mouse CNPase catalytic domain containing the C-terminal tail (construct 6-2) (mouse)
# Assay: SEC; HiLoad 16/60 Superdex 200, after Ni-TED purification and TEV cleavage; dimer to monomers
substance,measurement,value
mouse CNPase catalytic domain containing the C-terminal tail (construct 6-2) (domain or fragment),stoichiometry N,2
